Assay results published in PMC10325834, “Characteristics of Mycobacterium tuberculosis PtpA interaction and activity on the alpha subunit of human mitochondrial trifunctional protein, a key enzyme of lipid metabolism” (Frontiers in Cellular and Infection Microbiology, 2023).

Target: the molecule itself
Experiment: SEC; Superdex 200 16/60 preparative grade; 50 mM Tris-HCl pH 8.0, 100 mM NaCl, 5% glycerol, 0.1% Tween 20; apparent molecular weight from a calibration curve

B1: recombinant alpha subunit of human mitochondrial trifunctional protein, wild type (enzyme)
chain: not shown
notes: also called hTFPα; hTFPα-wt; source: E. coli BL21 (DE3), purified (Ni-NTA, SEC on Superdex 200)
stoichiometry N: 2

B2: recombinant alpha subunit of human mitochondrial trifunctional protein, Y271F mutant (enzyme)
chain: not shown
notes: also called hTFPα-Y271F; source: E. coli BL21 (DE3), purified (Ni-NTA, TEV cleavage, SEC)
stoichiometry N: 2
